Experiments:
[1] = biological target: in vitro phosphorylated tau deletion mutant tau 221-441 (human, UniProt P10636 538-758, phosphorylated in vitro with rat brain kinase extract; sites not listed); assay: immunoblot of in vitro phosphorylated tau deletion mutants
[2] = biological target: T1, in vitro phosphorylated tau 2N4R point mutant Thr217Ala (human, UniProt P10636 1-758, phosphorylated in vitro with rat brain kinase extract; sites not listed); assay: immunoblot of in vitro phosphorylated tau 2N4R point mutants
T1 construct: also called Thr217A1a
Description: Soluble tau proteins were diluted with an equal volume of 2×SDS (sodium dodecylsulfate) sample loading buffer (with β-mercaptoethanol) (Laemmli, 1970) and 250 ng of proteins were loaded per lane. For insoluble PHF-tau, the pellets were dissolved in 1×SDS-sample loading buffer, in 1/50 volume of the soluble fraction used for the preparation of the insoluble tau fraction. Then, equal volumes of soluble tau and sarkosyl-insoluble tau fractions were used for immunoblotting, which corresponded to 15 μg of total protein in the soluble fraction (see Filipcik et al. 2010). Samples were heated at 95° C. for 5 min, loaded onto 5-20% gradient SDS polyacrylamide gels, and electrophoresed in a Tris-glycine-SDS buffer system for 40 minutes at 25 mA. Proteins were transferred to a polyvinylidene fluoride (PVDF) membrane (1 h at 150 mA in 10 mM CAPS, pH 12). […] The blots were developed with SuperSignal West Pico Chemiluminescent Substrate (Pierce, U.S.A), and the protein signals detected using a LAS3000 imaging system (FUJI Photo Film Co., Japan). The chemiluminescence signal intensities were quantified using AIDA (Advanced Image Data Analyzer, Raytest, Straubenhardt, Germany) software. […]

T1 sequence (P10636 other isoform, or with tags, fused parts or gaps T217A T217A limits assumed): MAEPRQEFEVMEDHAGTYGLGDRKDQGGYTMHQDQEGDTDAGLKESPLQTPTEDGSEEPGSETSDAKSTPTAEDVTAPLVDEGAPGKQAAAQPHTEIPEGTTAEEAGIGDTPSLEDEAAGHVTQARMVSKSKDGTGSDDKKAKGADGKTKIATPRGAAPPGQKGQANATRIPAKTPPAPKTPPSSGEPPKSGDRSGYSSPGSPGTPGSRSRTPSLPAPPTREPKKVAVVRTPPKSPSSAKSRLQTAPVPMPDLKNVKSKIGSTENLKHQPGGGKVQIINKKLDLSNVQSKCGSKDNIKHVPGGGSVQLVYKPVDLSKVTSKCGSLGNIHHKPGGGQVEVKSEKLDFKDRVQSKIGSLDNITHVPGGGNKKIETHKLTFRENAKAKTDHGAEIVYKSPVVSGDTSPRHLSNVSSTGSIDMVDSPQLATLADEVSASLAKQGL
in vitro phosphorylated tau deletion mutant tau 221-441, sequence (P10636 other isoform, or with tags, fused parts or gaps mutant): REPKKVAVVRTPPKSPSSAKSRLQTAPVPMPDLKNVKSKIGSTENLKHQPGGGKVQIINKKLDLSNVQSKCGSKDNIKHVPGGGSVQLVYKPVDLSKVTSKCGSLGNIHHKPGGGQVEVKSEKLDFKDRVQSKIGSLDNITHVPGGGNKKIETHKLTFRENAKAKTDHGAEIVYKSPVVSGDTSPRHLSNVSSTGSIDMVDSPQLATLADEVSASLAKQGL

B1: monoclonal antibody DC2E7 (antibody, mouse IgG2a, V domains shown)
VH: DVQLVESGGGLVQPGGSRKLSCAASGFTFSSFGMHWVRQAPEKGLEWVAYISGDSNTIYYADTVKGRFTISRDNPKNTLFLQMTSLRSEDTAIYYCARTLAYWGQGTLVTVS
VL: DIQMTQSSSSFSVSLGDRVTITCKASEDIYNRLAWYQQTPGNAPSLLISGASGLETGVPSRFSGSGSGRDYTLSITSLQTEDVATYYCLQYWSIPWTFGGGTKLEIKR
notes: also called DC217 (apparent misprint)
[1]
  binding result: no binding
[2]
  binding result: no binding
